Experimental data as given in patent US20090010920A1.

Molecular target: FcγRIIIa on human PBMC effector cells (heterozygous V158/F158 or allotype not stated) (human) (UniProt P08637)
Assay: cell-based or functional assay

FcγRIIIa on human PBMC effector cells (heterozygous V158/F158 or allotype not stated) (human), sequence (P08637 17-254): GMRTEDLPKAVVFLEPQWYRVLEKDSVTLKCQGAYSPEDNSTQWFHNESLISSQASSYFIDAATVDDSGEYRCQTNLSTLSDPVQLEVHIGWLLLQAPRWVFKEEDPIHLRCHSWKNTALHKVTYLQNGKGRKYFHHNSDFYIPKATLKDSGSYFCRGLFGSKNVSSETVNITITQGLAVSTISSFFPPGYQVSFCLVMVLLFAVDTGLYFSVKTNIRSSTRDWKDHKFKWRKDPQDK

Substance | ADCC EC50, DoHH-2 target cells, human PBMCs [ng/mL] | ADCC log(EC50), DoHH-2 target cells, human PBMCs
S239D/I332E alemtuzumab (antibody) | 3 | 0.49 log(ng/ml)
V264I/I332E alemtuzumab (antibody) | 4 | 0.6 log(ng/ml)
